# Test results: PMC10144703, “Molecular Mechanism of Sirtuin 1 Inhibition by Human Immunodeficiency Virus 1 Tat Protein” (Life, 2023)
# T1: human full-length Sirt1 (fl-Sirt1) (Homo sapiens, UniProt Q96EB6)
# T1 construct: human full-length Sirt1 (fl-Sirt1) in pET-15b; made in house; host or cells: E. coli CodonPlus(DE3)
# T1 sequence (Q96EB6 1-747): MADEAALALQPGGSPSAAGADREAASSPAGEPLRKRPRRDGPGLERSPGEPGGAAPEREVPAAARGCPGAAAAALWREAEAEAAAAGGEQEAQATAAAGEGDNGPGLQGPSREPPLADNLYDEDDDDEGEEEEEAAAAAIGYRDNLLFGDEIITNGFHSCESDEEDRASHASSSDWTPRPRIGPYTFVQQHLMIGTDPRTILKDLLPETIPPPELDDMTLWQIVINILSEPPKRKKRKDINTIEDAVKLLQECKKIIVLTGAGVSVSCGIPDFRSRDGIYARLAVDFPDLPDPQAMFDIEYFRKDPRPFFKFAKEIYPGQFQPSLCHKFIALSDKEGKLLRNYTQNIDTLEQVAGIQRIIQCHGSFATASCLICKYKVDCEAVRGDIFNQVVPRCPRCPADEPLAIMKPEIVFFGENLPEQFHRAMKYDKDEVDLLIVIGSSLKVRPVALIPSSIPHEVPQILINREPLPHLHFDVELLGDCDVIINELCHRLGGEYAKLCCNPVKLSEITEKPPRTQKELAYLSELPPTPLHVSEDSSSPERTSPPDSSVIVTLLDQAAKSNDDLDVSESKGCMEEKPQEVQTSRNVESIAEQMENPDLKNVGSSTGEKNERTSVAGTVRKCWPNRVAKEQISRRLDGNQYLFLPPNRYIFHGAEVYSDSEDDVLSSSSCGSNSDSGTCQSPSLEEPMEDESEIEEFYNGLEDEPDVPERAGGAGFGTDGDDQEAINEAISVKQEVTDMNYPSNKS
# T2: human mini-Sirt1 (aa 183-505-(GGGS)2-641-665) (Homo sapiens, UniProt Q96EB6)
# T2 construct: aa 183-505-(GGGS)2-641-665; made in house; host or cells: E. coli CodonPlus(DE3)
# T2 sequence (Q96EB6 with tags, fused parts or gaps limits assumed): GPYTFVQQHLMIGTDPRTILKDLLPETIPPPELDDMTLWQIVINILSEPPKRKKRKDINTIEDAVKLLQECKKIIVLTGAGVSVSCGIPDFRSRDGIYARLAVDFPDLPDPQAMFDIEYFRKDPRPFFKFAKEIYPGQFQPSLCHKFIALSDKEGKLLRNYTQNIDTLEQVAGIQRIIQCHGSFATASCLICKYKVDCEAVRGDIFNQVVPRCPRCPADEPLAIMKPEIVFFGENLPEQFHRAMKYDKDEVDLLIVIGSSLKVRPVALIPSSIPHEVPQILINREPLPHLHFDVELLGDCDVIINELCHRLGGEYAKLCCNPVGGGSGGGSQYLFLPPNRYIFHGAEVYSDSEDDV
# B1: Tat-Cys^−: Recombinant 86-residue HIV1 Zaire 2 Tat with C22S, C25A, C27A, C30S, C31A, C34S, and C37A (protein)
# chain: MDPVDPNIEPWNHPGSQPKTASNRAHAKKSAYHSQVAFITKGLGISYGRKKRRQRRRPSQGGQTHQDPIPKQPSSQPRGDPTGPKE
# How the values were obtained:
# [1] = biological target: T1, human full-length Sirt1 (fl-Sirt1); assay: FdL deacetylation assay, fl-Sirt1; type: biochemical; conditions: Figure 1D,E; compared with Sirt2 and Sirt3
# Text: (§1) A human mini-Sirt1 construct (aa 183-505-(GGGS)2-641-665), as described in [27], was generated in a modified pET-19b with a TEV cleavage site. This construct and human full-length Sirt1 (fl-Sirt1) in pET-15b, Sirt1-(183-664) and Sirt1-(214-664) in pET-15b, mini-Sirt1-∆SBD (aa 214-505-(GGGS)2-641-665) and mini-Sirt1-∆ESA (aa 183–505) in a modified pET-19b with TEV cleavage site, Sirt2-(43-356) in a modified pET-19b with a His6-Sumo tag, Sirt3-(93-399) in a modified pET-32a with Trx-His6 tag and TEV cleavage site, hSirt3-(118-399) in pVFT3S (Sungkyunkwan University, Seoul, Republic of Korea) with His6-Trx tag and TEV cleavage site, Sirt5-(34-302) in pET-151/D-TOPO, and Sirt6-(1-355) in pQE80L.1 were purified as described. Shortly, proteins were expressed at 20 °C (mini-Sirt1 constructs at 16 °C) in E. coli CodonPlus(DE3), cell lysates were cleared by centrifugation, and proteins were purified via affinity chromatography using a nickel NTA column. After digestion with thrombin or TEV protease, proteins were re-run over the nickel NTA column, pooled, and concentrated. The samples were, then, subjected either directly to size exclusion chromatography in 50 mM Tris/HCl, pH 8.0, 150 mM NaCl, 1 mM TCEP, or to an ion exchange chromatography followed by size exclusion chromatography. […]
# [2] = biological target: T2, human mini-Sirt1 (aa 183-505-(GGGS)2-641-665); assay: FdL assay, mini-Sirt1; type: biochemical; conditions: Michaelis–Menten
# Text: as §1
molecule,measurement,setting,value
B1,"relative isoform inhibition, Sirt1 vs other isoforms",[1],slightly more potent inhibition of this isoform
same,"inhibition mode vs acetylated substrate peptide, Sirt1","[2]; FdL-1, mini-Sirt1, increasing Tat-Cys^−, n = 3",competitive with the acetylated substrate peptide
same,"inhibition mode vs NAD^+, Sirt1","[2]; NAD^+, mini-Sirt1, increasing Tat-Cys^−, n = 3–6",non-competitive with NAD^+
